The results in this text go back to patent US20240165282A1, “CONFORMATIONAL CONSTRAINED SOMATOSTATIN RECEPTOR 3 PEPTIDE LIGANDS AND THEIR CONJUGATES AND USES THEREOF” (STARGET PHARMA LTD., priority 2021, published 2024).

“And” between values parts separate entries of the source, which are not always exact repeats. Identical values can stand only once. *1 amine or outer side, *2 acyl side, *3 side chain or, on linkers, in order; H or OH if unused. Bridges are numbered along the chain shown (N, C = ends). [ ]: non-standard residue; d: D form. The star is where a group is joined. DOTA = O=C(O)CN1CCN(CC(=O)O)CCN(CC(=O)*)CCN(CC(=O)O)CC1; N(2-mercaptoethyl)Gly = O=C(CN(CCS[*:3])[*:1])[*:2]; GABA = NCCCC(=O)O

In one assay the target is SSTR5 (Homo sapiens, UniProt P35346). The assay is described as follows: Radioligand binding, displacement of 125I-Tyr11-SRIF-14. More on the design: host or cells: Chem-1 (Rat ChemiSCREEN) cells, membrane preparation. The following applies: hSSTR-5. From the text:
(§1) The binding to human cloned receptors SSTR-1, or SSTR-2 or SSTR-3 evaluated in stable and selective transfected CHO (Chinese Hamster Ovary) cells and binding to STSR-4 and SSTR-5 in stable and selective transfected Chem-1 (Rat ChemiSCREEN) cells. […] The binding reactions were filtered, the filters were washed, and the bound radioactivity was counted using a gamma counter.
(§2) The following table depicts the conditions of binding assay to each of the somatostatin receptors used for the evaluations of binding affinities of the tested peptides. All assays were performed by quantitation method of radioligand binding under 25° C. The vehicle was 1% DMSO, the incubation buffer was 25 mM HEPES, pH 7.4, 5 mM MgCl2, 1 mM CaCl2, 0.1% BSA. […] The significance criteria were >50% of max inhibition. […] This specific binding data used for calculation of Bmax values which is the concentration of each of the expressed cloned receptor in its transfected cell system.
(§3) The Results of IC50 values were determined by a non-linear, least squares regression analysis using MathIQ™ (ID Business Solutions Ltd., UK). […] The Hill coefficient (nH), defining the slope of the competitive binding curve, was calculated using MathIQ™.

For the next assay, the target named is T1, hSSTR-4 (Homo sapiens, UniProt P31391).
T1 construct: host or cells: Chem-1 (Rat ChemiSCREEN) cells, membrane preparation
T1 sequence (P31391 whole entry): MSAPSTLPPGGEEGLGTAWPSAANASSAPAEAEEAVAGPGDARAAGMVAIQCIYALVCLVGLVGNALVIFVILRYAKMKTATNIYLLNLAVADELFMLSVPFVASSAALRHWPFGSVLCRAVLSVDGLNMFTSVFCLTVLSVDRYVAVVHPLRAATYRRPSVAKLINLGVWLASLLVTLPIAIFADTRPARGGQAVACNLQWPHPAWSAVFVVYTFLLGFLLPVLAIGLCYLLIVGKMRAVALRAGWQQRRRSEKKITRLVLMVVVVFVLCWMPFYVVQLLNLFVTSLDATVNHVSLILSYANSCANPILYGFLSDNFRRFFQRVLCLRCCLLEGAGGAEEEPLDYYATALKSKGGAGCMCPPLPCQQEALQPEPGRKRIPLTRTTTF
The description is as above. As to conditions: hSSTR-4.
Text: as §1, §2, §3

A further assay concerns the target SSTR3 (Homo sapiens, UniProt P32745). The assay is described as above. More on the design: host or cells: CHO (Chinese Hamster Ovary) cells, membrane preparation. The following applies: for affinity and selectivity to SSTR3 (in words): binding data; for % displacement of [^125I] Tyr^11-SRIF-14: hSSTR-3.
Text: as §1, §2, §3

In another assay the target is SSTR1 (Homo sapiens, UniProt P30872). Described as above. As to conditions: hSSTR-1. More on the design: host or cells: CHO (Chinese Hamster Ovary) cells, membrane preparation.
Sequence of SSTR1 (P30872 whole entry): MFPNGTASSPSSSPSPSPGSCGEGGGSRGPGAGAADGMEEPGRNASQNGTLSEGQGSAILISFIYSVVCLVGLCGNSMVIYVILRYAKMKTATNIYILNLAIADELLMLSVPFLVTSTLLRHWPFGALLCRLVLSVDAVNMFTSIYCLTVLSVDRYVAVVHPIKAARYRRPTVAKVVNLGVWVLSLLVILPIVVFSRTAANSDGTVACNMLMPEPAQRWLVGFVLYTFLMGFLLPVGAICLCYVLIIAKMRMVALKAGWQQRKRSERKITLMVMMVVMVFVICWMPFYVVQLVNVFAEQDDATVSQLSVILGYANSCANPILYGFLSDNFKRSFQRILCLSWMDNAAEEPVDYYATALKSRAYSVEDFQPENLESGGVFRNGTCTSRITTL
Text: as §1, §2, §3

The target in another assay is SSTR2 (Homo sapiens, UniProt P30874). The assay is described as above. More on the design: host or cells: CHO (Chinese Hamster Ovary) cells, membrane preparation. As to conditions: hSSTR-2.
Sequence of SSTR2 (P30874 whole entry): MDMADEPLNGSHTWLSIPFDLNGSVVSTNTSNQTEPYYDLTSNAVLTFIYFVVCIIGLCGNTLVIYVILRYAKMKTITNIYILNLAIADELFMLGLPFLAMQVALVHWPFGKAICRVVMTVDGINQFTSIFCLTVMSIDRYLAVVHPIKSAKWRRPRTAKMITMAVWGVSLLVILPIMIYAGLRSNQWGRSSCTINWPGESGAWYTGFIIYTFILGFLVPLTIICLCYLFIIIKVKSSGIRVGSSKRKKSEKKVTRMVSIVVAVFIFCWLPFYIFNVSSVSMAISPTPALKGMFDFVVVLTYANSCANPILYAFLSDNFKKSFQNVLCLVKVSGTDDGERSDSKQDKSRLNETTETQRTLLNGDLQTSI
Text: as §1, §2, §3

In a further assay the test system is SSTR3-tGFP-U2OS cells. Briefly: Cellular internalization of 177Lu radiolabeled compounds. The following applies: 4 h. In kind it is cell-based, human. The protocol:
In order to evaluate the cellular internalization of the ^177Lu radiolabeled SEQ ID NO: 6 in comparison to SEQ ID NO: 19 in SSTR3 transfected human cancer cell line to predict the tumor uptake of the radiolabeled compounds, the following example was performed.
Comparative SSTR3 receptor mediated internalization, was determined by incubation of the cultivate cancer cells with the ^177Lu radiolabeled compounds and determination of cellular uptake following washes of the cell culture. To evaluate the internalization as a receptor mediated process, the same experiments were performed in the presence of high concentration of cold SSTR3 ligands.
U2OS cells grow as a monolayer at +37° C. in a humidified atmosphere (5% CO2, 95% air). U2OS cancer cells are adherent to plastic flasks. For experimental use, these cancer cells are detached from the culture flask by a 5-minute treatment with trypsin-versene, in Hanks' medium without calcium or magnesium and neutralized by addition of complete culture medium.
The assay was performed as follows: Transfected human osteosarcoma cells SSTR3-tGFP-U2OS were plated in 6 well plate, 24 hours before the assay to have 80-90% confluency at the day of the assay. 30 minutes before the assay, medium was removed, and cells were washed with tempered Dulbecco's Phosphate Buffered Saline (DPBS, Sigma) and fresh medium (250 μL) is added. For total cellular uptake, 20 nM of the radioligand SEQ ID NO: 6 or SEQ ID NO: 19 were diluted in cell medium (250 μL) added to each well, in triplicate (final radioligand concentration: 10 nM). For non-specific binding, 20 μM (1000 in excess) of cold SEQ ID NO: 4 or cold SEQ ID NO: 6 or SEQ ID NO: 1 and 20 nM of ^177Lu-DOTA-PTR-58 radioligand solution in cell medium (250 μL) were added to each well, in triplicate (final cold peptide concentration: 10 μM; final radioligand concentration: 10 nM). The plates were incubated for 4 hours at +37° C. (air containing 5% CO2, humidified atmosphere). At the end of incubation, the plates were placed on ice to stop any internalization process. The medium, containing the free radioligand fraction, was collected and the cells were washed twice (2×750 μL) with ice-cold DPBS. The medium and the PBS washes were collected in the same vial from each well (final volume […]). The radioactivity of the cell pellets was counted by gamma counter and represents the cellular uptake as percentage of the administrated radioactivity. The radioactivity readouts of the wash-media were used for mass balance.

Sequence of SSTR3 (P32745 whole entry): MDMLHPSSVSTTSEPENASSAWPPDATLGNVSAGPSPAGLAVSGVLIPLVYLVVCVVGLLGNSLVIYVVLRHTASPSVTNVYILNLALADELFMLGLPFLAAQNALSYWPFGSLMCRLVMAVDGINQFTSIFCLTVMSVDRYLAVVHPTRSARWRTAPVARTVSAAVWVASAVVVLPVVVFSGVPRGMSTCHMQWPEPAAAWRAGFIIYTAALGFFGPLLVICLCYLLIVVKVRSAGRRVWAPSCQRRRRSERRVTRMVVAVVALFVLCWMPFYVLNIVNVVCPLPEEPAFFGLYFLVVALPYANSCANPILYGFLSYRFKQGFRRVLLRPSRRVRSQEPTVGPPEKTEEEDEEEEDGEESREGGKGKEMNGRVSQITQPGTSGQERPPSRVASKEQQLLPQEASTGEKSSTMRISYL
Sequence of SSTR5 (P35346 whole entry): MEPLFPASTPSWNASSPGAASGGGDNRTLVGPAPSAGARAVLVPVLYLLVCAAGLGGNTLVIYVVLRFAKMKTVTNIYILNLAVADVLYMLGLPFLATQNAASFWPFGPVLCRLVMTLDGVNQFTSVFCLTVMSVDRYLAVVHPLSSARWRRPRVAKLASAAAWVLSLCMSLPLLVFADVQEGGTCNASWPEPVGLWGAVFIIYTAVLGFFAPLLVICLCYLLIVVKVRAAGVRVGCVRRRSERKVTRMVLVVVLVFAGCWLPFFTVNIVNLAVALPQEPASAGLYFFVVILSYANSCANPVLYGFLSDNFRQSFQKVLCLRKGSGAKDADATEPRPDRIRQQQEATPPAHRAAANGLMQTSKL

Turning to “H-Arg^1-Gly^2-Asp^3-D-Phe^4-Arg^5-Cys^6-Phe^7-D-Trp^8-Lys^9-Thr^10-Phe^11 -NTEG^12-NH^2 (cyclo 6-12) (H-RGD[dF]RCF[dW]KTF[N(2-mercaptoethyl)Gly]-NH2; disulfide 6-12; SMILES C[C@@H](O)[C@@H]1NC(=O)[C@H](CCCCN)NC(=O)[C@@H](Cc2c[nH]c3ccccc23)NC(=O)[C@H](Cc2ccccc2)NC(=O)[C@@H](NC(=O)[C@H](CCCNC(=N)N)NC(=O)[C@@H](Cc2ccccc2)NC(=O)[C@H](CC(=O)O)NC(=O)CNC(=O)[C@@H](N)CCCNC(=N)N)CSSCCN(CC(N)=O)C(=O)[C@H](Cc2ccccc2)NC1=O) [SEQ ID NO: 13]”, the “% displacement of [^125I] Tyr^11-SRIF-14” value in the assay with SSTR5 (at 1 nM (in brackets)) was 0%; in the assay with SSTR5 (at 10 nM), 4%; with hSSTR-4 (at 1 nM (in brackets)), 0(0) %; with hSSTR-4 (at 10 nM), 0(0) %; with SSTR3 (at 1 nM (in brackets)), 36%; in the assay with SSTR3 (at 10 nM), 78%. Also, the “% displacement of [^125I] Tyr^11-SRIF-14” value in the assay with SSTR1 (at 1 nM (in brackets)) was 9%; with SSTR1 (at 10 nM), 15%; with SSTR2 (at 1 nM (in brackets)), 0%; with SSTR2 (at 10 nM), 12%. The “affinity and selectivity to SSTR3 (in words)” value (from here on “affinity and selectivity”) in the assay with SSTR3 was “did not interfere with the affinity and selectivity of SEQ ID NO: 3 to SSTR3”.

As to “H-Phe^1-Arg^2-Cys^3-Phe^4-D-Trp^5-Lys^6-Thr^7-Tyr^8-NTEG^9-NH2 (cyclo 3-9) (H-XRCF[dW]KTY[N(2-mercaptoethyl)Gly]-NH2; disulfide 3-9; not fully specified (residue 1); printed as H-Phe1-Arg2-Cys3-Phe4-D-Trp5-Lys6-Thr7-Tyr8-NTEG9-NH2 (cyclo 3-9)) [SEQ ID NO: 26]”, the “% displacement of [^125I] Tyr^11-SRIF-14” value in the assay with SSTR5 (at 1 nM (in brackets)) is reported as 0%; with SSTR5 (at 10 nM) it was 1%; in the assay with hSSTR-4 (at 1 nM (in brackets)) it was 0(0) %; in the assay with hSSTR-4 (at 10 nM), 0(0) %; in the assay with SSTR3 (at 1 nM (in brackets)), 53%; with SSTR3 (at 10 nM), 86%. The “% displacement of [^125I] Tyr^11-SRIF-14” value with SSTR1 (at 1 nM (in brackets)) is 0%; in the assay with SSTR1 (at 10 nM), 24%; with SSTR2 (at 1 nM (in brackets)), 0(0) %; in the assay with SSTR2 (at 10 nM), 0(0) %.

As to “Niraparib-CO(CH2)3CO-D-Phe^1-Arg^2-Cys^3-Phe^4-D-Trp^5-Lys^6-Thr^7-Phe^8-NTEG^9-NH2 cyclo 3-9 [SEQ ID NO: 28]”, the “% displacement of [^125I] Tyr^11-SRIF-14” value was 0(0) % on SSTR5 (at 1 nM (in brackets)); 0(0) % at SSTR5 (at 10 nM); 0(0) % on hSSTR-4 (at 1 nM (in brackets)); 0(0) % on hSSTR-4 (at 10 nM); 28% at SSTR3 (at 1 nM (in brackets)); 79% on SSTR3 (at 10 nM). In addition, the “% displacement of [^125I] Tyr^11-SRIF-14” value is given as 12% at SSTR1 (at 1 nM (in brackets)), 23% on SSTR1 (at 10 nM), 0(0) % on SSTR2 (at 1 nM (in brackets)) and 0(0) % on SSTR2 (at 10 nM). At SSTR3, the “affinity to SSTR3” value was at most 10 nM. Further, the “affinity and selectivity” value at SSTR3 was “the same selectivity to SSTR3 as SEQ ID NO: 1”.

For the substance “^177Lu -SEQ ID NO: 6 ({DOTA}-[dF]RCF[dW]KTF[N(2-mercaptoethyl)Gly]-NH2; disulfide 3-9; also: 177Lu complex of DOTA)”, the “% Total cellular uptake” value in the assay with SSTR3-tGFP-U2OS cells (177Lu radiolabeled, 10 nM, no blocking) was 15.5 ± 0.28% and 22.1 ± 0.5%; in the assay with SSTR3-tGFP-U2OS cells (177Lu radiolabeled, 10 nM, no blocking, listed as 177Lu radiolabeled SEQ ID NO. 6), 22%; with SSTR3-tGFP-U2OS cells (+ SEQ ID NO: 4 (cold 69/71Ga for blocking)), 0.9 ± 0.02%; in the assay with SSTR3-tGFP-U2OS cells (+ SEQ ID NO: 6 (cold 175Lu for blocking)) it was 0.6 ± 0.02%.

In the case of “gallium labelled DOTA-GABA-D-Phe^1-Arg^2-Cys^3-Phe^4-D-Trp^5-Lys^6-Thr^7-Phe^8-NTEG^9-NH2 (cyclo 3-9) ({DOTA-GABA}-[dF]RCF[dW]KTF[N(2-mercaptoethyl)Gly]-NH2; disulfide 3-9; also: gallium complex of DOTA) [SEQ ID NO: 8]”, the “% displacement of [^125I] Tyr^11-SRIF-14” value came out at 0% with SSTR5 (at 1 nM (in brackets)); 15% with SSTR5 (at 10 nM); 5% with hSSTR-4 (at 1 nM (in brackets)); 4% with hSSTR-4 (at 10 nM); 61% with SSTR3 (at 1 nM (in brackets)); 88% in the assay with SSTR3 (at 10 nM). Moreover, the “% displacement of [^125I] Tyr^11-SRIF-14” value came to 0% with SSTR1 (at 1 nM (in brackets)), 10% with SSTR1 (at 10 nM), 0% with SSTR2 (at 1 nM (in brackets)) and 10% in the assay with SSTR2 (at 10 nM). Moreover, the “affinity and selectivity” value with SSTR3 is “maintains the same affinity and selectivity to SSTR3 as SEQ ID NO. 1, and SEQ ID NO. 3-7”.
